# Data: the supplement of paper PMC9170038
# Tested on: K4 kissing-loop RNA reporter
# Test: apparent KD of K4 kissing-loop reporter; higher = weaker reporter binding
# Details: Eterna round: R107; input ligand: FMN 200 uM
# Method: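 RNA-MaP round R107: designed RNA switches with theophylline, tryptophan, arginine or FMN aptamers are transcribed on-chip within common flanks. They are titrated with a labelled K4 kissing-loop RNA reporter in RNA-MaP buffer (100 mM Tris pH 7.5, 80 mM KCl, 4 mM MgCl2), without ligand or with the indicated ligand. Median apparent KD per design.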
# 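Also: bound reporter read as fluorescence of individual clusters on recovered sequencing chips by microscopy, with normalized cluster intensities fitted with a binding model.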
row,Sequence,apparent KD of K4 kissing-loop reporter [nM]
1,CACUCGGUAUCAGAUACCAGACUAUCGAUACCGAGUGUAUCGGGUAGUGAUGUUACCAUAGUCCCUUGGCAGCUGAUAUUGCAUA [Theo B SS t9b],73.3
2,AGUGUGCAAAAGCACACUCAGAACAAGGACAAGGAUAUCUACUAAUAGAGAAGGUGUCCUUUCCUUAGUGAUGUUAAGGAACUGA [Omei KL FMN A SS D v5],278
3,CGUAGAUACUGAGGAUAUCAGAAAUCUGAUAUCAUCAGAGGUCUGAGUGAUGUUCAGAUGCGACUCUGAGAAGGCAGUAGGAGUC [FMN B Ex t2],134
4,UCCAGCAGUACUGAUACCAGACUGCAUGUAGUGAUGUUGCAUAAGGGCAUAGAUGUCUCAGUCCCUUGGCAGCGGUACUGUUGCA [#09 K4 Theophylline B Same State],379
5,UUCCGGGCCGAAGGAUAUUGGAGUGAUGUUUCAAGACGUUCGUCCCAGCCCAUAGUAACUAUCGCCCAAGAAGGUCGUAUUGAAU [theeternabot_exclusion_KL_FMN_B_13],227
6,GCGCGUCAUGUCAGCGGUGACUAUGUCGAUACCAGCGCCGCAAGGCGCCCUUGGCAGCGACGCGCUGGAGUGAUGUUCCGACGGC [#2 Exclusion - Theophylline A Attempt #9 (HarryS)],144
7,CGCUGGAGUGAUGUUCCAGCUUCUACGGAUACCAGCCACGCCAGCGGCCCUUGGCAGCCGCAAAUUGCAGUGAUGUUGUGAUGCC [Same State Theophylline A GF 4],314
8,AUAUAUAACUGAAGGAGCGAGGCCAAAUAUAUAUAGUGAUGUUAUAUAAAGGCACAUAGGCCUCAGGUAGGUCGCAGAAUAAUAU [AstrosExyArGB#1],284
9,CAUUGUACACGGUGCGAAGACCCAAUGGAUACCAGCAAUACAUUAUGCCCUUGGCAGCCAAGAGUGAUGUUCGACGGACUAGAUU [theeternabot_sameState_KL_Theo_A_4],249
10,CAAGUCGAAAAGUGAUGUUUUUCAUACGAUACCAGCAACCAGACAUGCCCUUGGCAGCGUCCAUUACGUUUCUGAGCCCGUACAG [theeternabot_exclusion_KL_Theo_A_40],360
11,AGUGUUGUUUUUUUUAAGAGUGAUGUUUUUCGAGGACCGGUACGGCCGCCACUCGAGUGAUGAGUGAGGUGUGGUGAUGAUUAGU [#10 K4 Tryptophan A Exclusion],816
12,GGGAUGAUGUCGGCCGCCACUGACUGUGUCCAGUGAUGUUGGGAGUGUACGGAAGUUCCAUAUAUCAGGACCGGGACCUCGCUCC [theeternabot_sameState_KL_Trp_B_44],866
13,AAAGAUCUUCUAGAAACUAGAAGAUCAAGAGAGGAUAUCCGAAUUCGGAGAAGGCUCGCUAAGUGAUGUUUGGACCCAAAGGGAA [AK3.1 SS FMN A],1100
14,UGAUUGAACUGAAGGAGCGGCAAGAGAGAAGGAAAUAUAGUGAUGUUAUAUAAGAGAGAGAGCCAGGUAGGUCGCAGAGGGAGGA [ExArgB.D],198
15,GCGCGGCUCAGUGAUGUUGAGCCUCGGAGACGAGGACCGGUACGGCCGCCACUCGUCCGCGCAGCUGAGGCAAAAGCCUCGGCAA [Omei KL Tryp A SS B v3],201
16,GGUUCUCUGUUAGGAUAUAGAUUAGAGUGAUGUUCUAACGGCCCGGGCCCGAAAGGGCCCGGGCCGCUAGAAGGAACGGAGUUGG [#2 Same State - FMN A Attempt #1 (HarryS)],399

row,Sequence,apparent KD of K4 kissing-loop reporter [nM]
1,AAACGUUGGUGCGAUACCAGCUGAUCGGAAACGAUCUUGCUGGAGUGAUGUUCCAGGAAAAGCCCUUGGCAGCGCACCGACGAAA [MAT - Same State Theophlline B - Mod of Eli - D26],950
2,AAAAUAAAUCAGUGAUGUUGGUAUCUGGAUACCAGCGAUAAUCAUCGCCCUUGGCAGCCAUGGACGUACAAAAUAAGUACGUCCU [MatMod 17 - Jieux - Same State - Theophylline A],242
3,CAACGAGUGAUGGUCGUUGACGGCCAUCCCGAGGAUAUGGGAUUAUCCAGAAGGCGGGAUCGCCGGGAGUGAUGUUCCCUGAUCA [Same State FMN A GF 14],139
4,AGAGAUAUAUGAGGAUAUGAGAUAGUUAAUGAGUGAGUUUUAGUGUUGUUUGGUUAGUGAUGUUAUUUAGAAGGCGUGAGUGAUG [grrfullin],97.7
5,AAUUCUUAUCUUAGUAGAUUUCUAAUUAAACGAGGACCGGUACGGCCGCCACUCGGUUAUGAGUGAUGUUCAUGGAAUUACAUAA [JR_SSTryptoA_Sub018],285
6,GGCAUAUGGGCAGGAUAUAGGCAGGUAGAGUGAUGUUCUUUCUGAAUAAUUCCAUCCUUCUACCUACUAGAAGGGCCCAUAUGCC,56.5
7,GGAUAGGACAUAGGAUAUGGGCUAGGCAAGAAUAACUUGUCUAGCAAAUCCAUGAGGAGUGAUGUUCCAGAAGGAUGUCCUAUCG [FmnBX 1 U11+A75],566
8,CGAACCUCCAAAGGAUAUCUCGUUUAGUGAUGUUUUGCGUAGUAUCAGGAUAGAAUAUUGAUUCAGAGAGAAGGUUGACGUUGGU [theeternabot_exclusion_KL_FMN_B_14],733
9,CCAUCGCUAUUCGAUACCAGCUACUUAGUGAUGUUAAGUUAAAAUCCAUUGUAGAUGGAAAGCCCUUGGCAGCGAAUAGUGAUGG [Theophylline B K4 22],440
10,GCCGUAGAUUGAAGGAGCGGGCCGUAGUGAUGUUACGCCAAAUUAUCCUUUCUUGAGGUGGUCCAGGUAGGUCGCAAUCUACGGC,168
11,UACUUAUUUUUUAACUUAAAUUUUUCAGAAGGAGCGUGAUCAUUCACAGGUAGGUCGCUGAACUAGUGAUGUUAGUUUUAAUUUU [JR_Nu_ExcArginiA_Sub024],62.9
12,AAUUAAUACAGAAGGAGCGUGUAUUUAACUACAAUUAUCUUAGCGAGUGAUGUUCGUUUUACACAGGUAGGUCGCUGUAUAUUUA [JR_ExcArginiB_Sub010],201
13,UUAGAGAUCUCAGGAUAUCAGUGAUGUUGGUUUCCAGAUCUGAGAUAGAAUUCUAUCUCAGAUCAAUGAGAAGGGAGAUCUCAUU [AK4.1 Exc FMN B],535
14,CUAUCGGUGCCAGUGAUGUUGGUACCGCCACGAGGACCGGUACGGCCGCCACUCGCAUUAGAUGAUCACACAGUGUAUACUGCUA [Aleusorza],139
15,AGGCACGAGCAAGGAUAUCGAGUAGAGUGAUGUUCUGCCUGGGUUGGCUCGCAAGGGCCUUCCCAGCGAGAAGGUGCUCGUGCCU [#2 Same State - FMN A Attempt #17 (HarryS)],277

# Same assay, conditions: Eterna round: R107; input ligand: arginine 13.2 mM
row,Sequence,apparent KD of K4 kissing-loop reporter [nM]
1,CACUCGGUAUCAGAUACCAGACUAUCGAUACCGAGUGUAUCGGGUAGUGAUGUUACCAUAGUCCCUUGGCAGCUGAUAUUGCAUA [Theo B SS t9b],94.1
2,AGUGUGCAAAAGCACACUCAGAACAAGGACAAGGAUAUCUACUAAUAGAGAAGGUGUCCUUUCCUUAGUGAUGUUAAGGAACUGA [Omei KL FMN A SS D v5],524
3,CGUAGAUACUGAGGAUAUCAGAAAUCUGAUAUCAUCAGAGGUCUGAGUGAUGUUCAGAUGCGACUCUGAGAAGGCAGUAGGAGUC [FMN B Ex t2],107
4,UCCAGCAGUACUGAUACCAGACUGCAUGUAGUGAUGUUGCAUAAGGGCAUAGAUGUCUCAGUCCCUUGGCAGCGGUACUGUUGCA [#09 K4 Theophylline B Same State],294
5,UUCCGGGCCGAAGGAUAUUGGAGUGAUGUUUCAAGACGUUCGUCCCAGCCCAUAGUAACUAUCGCCCAAGAAGGUCGUAUUGAAU [theeternabot_exclusion_KL_FMN_B_13],177
6,GCGCGUCAUGUCAGCGGUGACUAUGUCGAUACCAGCGCCGCAAGGCGCCCUUGGCAGCGACGCGCUGGAGUGAUGUUCCGACGGC [#2 Exclusion - Theophylline A Attempt #9 (HarryS)],153
7,CGCUGGAGUGAUGUUCCAGCUUCUACGGAUACCAGCCACGCCAGCGGCCCUUGGCAGCCGCAAAUUGCAGUGAUGUUGUGAUGCC [Same State Theophylline A GF 4],278
